Patent US20030203373A1 (priority 2002, published 2003)

Assays:
[1] = test system: normotensive Wister rats; assay: Bradykinin-potentiating effect on blood pressure in anaesthetized normotensive rats; type: in vivo, rat; settings: Captopril 1.5 × 10^−4 M + Bradykinin 2.5 × 10^−6 M
Procedure: In the in vivo experiments with normotensive rats the animals were previously anaesthetized and after blood pressure stabilization treated with a constant amount of bradykinin. Subsequently, either Captopril or human BPP were administered, again followed by a constant amount of bradykinin. Afterwards the maximum blood pressure drop was determined and, on the basis of bradykinin as a factor 1, the potentiating factor was determined. In the same way, the systolic and diastolic blood pressure, the percentage middle pressure decrease and the time required to come back to the baseline values were measured (see tables 4a to 4j). A detailed experimental description is given below.
2. Measurement of Blood Pressure in Normotensive and Hypertensive Rats
The trials were conducted on female anaesthetized normotensive Wister rats with weight ranging from 210 to 240 g.
The peptide pANP48-57 used for the in vivo assays was synthesized by Biosynthan (Berlin) with a HPLC-determined purity of 98%.
Anaesthetizing was performed by i.p.-administration of 1 ml/kg Ketavit (100 mg/ml)+Rampun (2%).
In order to conduct the blood pressure measurement, a polyethylene catheter was introduced into the Aorta femuralis and connected with a pressure transducer. A Statham-P23A pressure-transducer was linked to a Gould Polygraph and used to determine the arterial blood pressure. A Hg-manometer was used to calibrate the system.
All substances were dissolved and diluted in a physiological sodium chloride solution and introduced into the Vena jugularis via a catheter.
After stabilization of blood pressure (after about 10 minutes) […] body weight of a 2,5 μM bradykinin-solution (Sigma) was administered.
The middle pressure was determined from the measured diastolic (pd) and systolic (ps) blood pressure by using the following formula: pm=(ps−Pd)×0,42+pd.

[2] = target: T1, angiotensin-converting-enzyme derived from pig kidney (pig) (UniProt F1RRW5); assay: cell-based or functional assay
T1 sequence (looked up): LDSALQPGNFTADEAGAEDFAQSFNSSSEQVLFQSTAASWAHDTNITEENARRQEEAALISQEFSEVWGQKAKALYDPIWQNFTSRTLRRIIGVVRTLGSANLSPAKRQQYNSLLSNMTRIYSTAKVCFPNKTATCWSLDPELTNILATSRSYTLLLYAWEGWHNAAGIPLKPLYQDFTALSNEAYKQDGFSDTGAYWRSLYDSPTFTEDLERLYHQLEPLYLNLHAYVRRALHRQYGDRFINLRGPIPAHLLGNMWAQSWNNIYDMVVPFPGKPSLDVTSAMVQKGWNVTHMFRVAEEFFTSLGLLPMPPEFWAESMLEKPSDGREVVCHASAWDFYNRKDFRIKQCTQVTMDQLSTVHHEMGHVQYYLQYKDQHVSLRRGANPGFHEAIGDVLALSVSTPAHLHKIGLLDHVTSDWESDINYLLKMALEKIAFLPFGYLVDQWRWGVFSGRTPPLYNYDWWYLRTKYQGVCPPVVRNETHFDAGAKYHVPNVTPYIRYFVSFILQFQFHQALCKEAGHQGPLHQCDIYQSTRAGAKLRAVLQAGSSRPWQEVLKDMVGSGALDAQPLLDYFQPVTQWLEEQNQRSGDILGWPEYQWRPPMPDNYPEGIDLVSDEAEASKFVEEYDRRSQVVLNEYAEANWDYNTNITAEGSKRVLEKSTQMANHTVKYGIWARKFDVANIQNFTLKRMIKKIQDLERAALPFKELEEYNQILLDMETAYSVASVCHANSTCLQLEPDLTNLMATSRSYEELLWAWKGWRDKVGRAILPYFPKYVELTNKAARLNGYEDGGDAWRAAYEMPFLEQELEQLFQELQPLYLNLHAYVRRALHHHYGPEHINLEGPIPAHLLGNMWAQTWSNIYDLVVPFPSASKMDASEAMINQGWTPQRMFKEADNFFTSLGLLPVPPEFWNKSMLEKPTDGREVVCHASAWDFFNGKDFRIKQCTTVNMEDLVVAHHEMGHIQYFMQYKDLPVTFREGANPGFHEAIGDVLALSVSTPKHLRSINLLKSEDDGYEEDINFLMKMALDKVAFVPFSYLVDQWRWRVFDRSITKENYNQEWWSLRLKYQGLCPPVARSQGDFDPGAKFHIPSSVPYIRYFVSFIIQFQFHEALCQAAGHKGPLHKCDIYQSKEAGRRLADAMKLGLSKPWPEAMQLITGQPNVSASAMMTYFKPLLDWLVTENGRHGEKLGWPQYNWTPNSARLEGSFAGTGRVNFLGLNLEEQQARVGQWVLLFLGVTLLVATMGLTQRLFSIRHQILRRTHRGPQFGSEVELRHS

**Q.** Which “potentiating factor (factor by which the blood pressure reducing effect of Bradykinin is potentiated, Bradykinin = 1)” value [1] does the source give for `C[C@H](CS)C(=O)N1CCC[C@H]1C(=O)O` [Captopril, reference compound] here?
**A.** 2

**Q.** And the “maximal drop of blood pressure” value ([1]; normotensive rats)?
**A.** 56% ± 17.3

**Q.** How did the % inhibition, inhibitor 0.0097 µM, row A [2] turn out when BPP9a from Bothrops jararaca (peptide) was run?
**A.** 18%

**Q.** What about the % inhibition, inhibitor 0.0097 µM, row B [2] of the same compound?
**A.** 17.3%

**Q.** And the % inhibition, inhibitor 0.0097 µM, row C [2]?
**A.** 14.8%

**Q.** What about the % inhibition, inhibitor 0.0097 µM, row D [2] of the same compound?
**A.** 7.86%

**Q.** What about the % inhibition, inhibitor 0.0195 µM, row C [2] of the same compound?
**A.** 23%

**Q.** And the % inhibition, inhibitor 0.078 µM, row B [2]?
**A.** 43.5%

**Q.** And the % inhibition, inhibitor 0.15625 µM, row B [2]?
**A.** 63.3%

**Q.** And the % inhibition, inhibitor 0.3125 µM, row A [2]?
**A.** 84%

**Q.** What about the % inhibition, inhibitor 0.3125 µM, row B [2] of the same compound?
**A.** 83.8%

**Q.** And the % inhibition, inhibitor 0.625 µM, row A [2]?
**A.** 94%

**Q.** What about the % inhibition, inhibitor 0.625 µM, row B [2] of the same compound?
**A.** 93.5%

**Q.** What about the % inhibition, inhibitor 1.25 µM, row B [2] of the same compound?
**A.** 97.3%

**Q.** What about the IC50, ACE inhibition [2] of the same compound?
**A.** 97 nM

**Q.** What about the IC50-value, ACE inhibition (hippuryl-histidyl-leucin substrate) [2] of the same compound?
**A.** 97 nM

**Q.** What about the fluorescence, inhibitor 0.0097 µM, row A [2] of the same compound?
**A.** 704000

**Q.** And the fluorescence, inhibitor 0.0097 µM, row B [2]?
**A.** 710000

**Q.** And the fluorescence, inhibitor 0.0097 µM, row C [2]?
**A.** 732000

**Q.** What about the fluorescence, inhibitor 0.0097 µM, row D [2] of the same compound?
**A.** 791000

**Q.** And the fluorescence, inhibitor 0.0195 µM, row A [2]?
**A.** 650000

**Q.** What about the fluorescence, inhibitor 0.0195 µM, row B [2] of the same compound?
**A.** 652000

**Q.** And the fluorescence, inhibitor 0.0195 µM, row C [2]?
**A.** 662000

**Q.** And the fluorescence, inhibitor 0.0195 µM, row D [2]?
**A.** 697000

**Q.** What about the fluorescence, inhibitor 0.039 µM, row A [2] of the same compound?
**A.** 629000

**Q.** What about the fluorescence, inhibitor 0.039 µM, row B [2] of the same compound?
**A.** 556000

**Q.** And the fluorescence, inhibitor 0.039 µM, row C [2]?
**A.** 592000

**Q.** What about the fluorescence, inhibitor 0.039 µM, row D [2] of the same compound?
**A.** 454000

**Q.** What about the fluorescence, inhibitor 0.078 µM, row A [2] of the same compound?
**A.** 446000

**Q.** And the fluorescence, inhibitor 0.078 µM, row B [2]?
**A.** 487000

**Q.** What about the fluorescence, inhibitor 0.078 µM, row C [2] of the same compound?
**A.** 445000

**Q.** And the fluorescence, inhibitor 0.078 µM, row D [2]?
**A.** 462000

**Q.** And the fluorescence, inhibitor 0.15625 µM, row A [2]?
**A.** 309000

**Q.** What about the fluorescence, inhibitor 0.15625 µM, row B [2] of the same compound?
**A.** 318000

**Q.** What about the fluorescence, inhibitor 0.15625 µM, row C [2] of the same compound?
**A.** 311000

**Q.** And the fluorescence, inhibitor 0.15625 µM, row D [2]?
**A.** 262000

**Q.** What about the fluorescence, inhibitor 0.3125 µM, row A [2] of the same compound?
**A.** 142000

**Q.** What about the fluorescence, inhibitor 0.3125 µM, row B [2] of the same compound?
**A.** 144000

**Q.** And the fluorescence, inhibitor 0.3125 µM, row C [2]?
**A.** 148000

**Q.** And the fluorescence, inhibitor 0.3125 µM, row D [2]?
**A.** 149000

**Q.** What about the fluorescence, inhibitor 0.625 µM, row A [2] of the same compound?
**A.** 55600

**Q.** And the fluorescence, inhibitor 0.625 µM, row B [2]?
**A.** 60300

**Q.** What about the fluorescence, inhibitor 0.625 µM, row C [2] of the same compound?
**A.** 60900

**Q.** And the fluorescence, inhibitor 0.625 µM, row D [2]?
**A.** 57500

**Q.** What about the fluorescence, inhibitor 1.25 µM, row A [2] of the same compound?
**A.** 25800

**Q.** And the fluorescence, inhibitor 1.25 µM, row B [2]?
**A.** 27500

**Q.** And the fluorescence, inhibitor 1.25 µM, row C [2]?
**A.** 27000

**Q.** And the fluorescence, inhibitor 1.25 µM, row D [2]?
**A.** 27200

**Q.** And the fluorescence, inhibitor 2.5 µM, row A [2]?
**A.** 14000

**Q.** And the fluorescence, inhibitor 2.5 µM, row B [2]?
**A.** 13900

**Q.** And the fluorescence, inhibitor 2.5 µM, row C [2]?
**A.** 14100

**Q.** And the fluorescence, inhibitor 2.5 µM, row D [2]?
**A.** 15100

**Q.** What about the fluorescence, inhibitor 5 µM, row A [2] of the same compound?
**A.** 10600

**Q.** And the fluorescence, inhibitor 5 µM, row B [2]?
**A.** 9630

**Q.** What about the fluorescence, inhibitor 5 µM, row C [2] of the same compound?
**A.** 9630

**Q.** And the fluorescence, inhibitor 5 µM, row D [2]?
**A.** 9660
